Test results published in the Human Domainome abundance scans (Beltran et al. 2025).

B1: Dynamin-binding protein, residues 146 to 206; numbered along this chain, Q6XZF7 (parent)
chain: SMGQARALMGLSAQLDEELDFREGDVITIIGVPEPGWFEGELEGRRGIFPEGFVELLGPLR
B2: CD2-associated protein, residues 109 to 169; numbered along this chain, Q9Y5K6 (parent)
chain: KKRQCKVLFEYIPQNEDELELKVGDIIDINEEVEEGWWSGTLNNKLGLFPSNFVKELEVTD

Variants of: B1
Assay: abundance fitness (aPCA) (normalised: wild type 0, dead -1); higher = more abundant; growth selection in yeast, the domain comes from the species named
Conditions: Homo sapiens

Abundance fitness of substitutions, site by site:
R61: P 0.123, D -0.053, C -0.234, S -0.017, L 0.336, G -0.123, F -0.363, T -0.046, Y -0.148, K 0.47, I -0.135, H -0.153, E -0.018, V 0.019, N -0.054
R46: C -0.303, Q -0.571, Y -0.698
P33: N -1.07, T -0.386, H -0.27, S -0.65, D -1.11, I -0.494, K -0.215, R -0.155, V -0.435, G -0.469, F -0.693, A -0.971, W -0.711, Y -0.587, L -0.615, C -0.792
E51: S -0.053, N -0.66, Q -0.074, F -0.621, P -0.792
F38: P -0.994, H -1.08, Q -1.12, W -0.667, K -0.503
D25: F -0.518, M -0.724, K -1.03
V32: C -0.12, P -1.04, F -0.446, N -0.232, Q 0.189, K -0.349, G -0.599
E18: K 0.23, N -0.236, G -0.17, I -0.212
I30: Y -0.286, C -0.599, M -0.481, K -0.129, L -0.085, R -0.284, A -0.374
E43: L -0.527, M 0.06, D 0.089, W -0.747
L19: A -0.525, K -0.705, C -0.684, D -0.413, H -0.768
L42: P -0.5, D -0.975, T -0.769, K -0.316
P35: W -0.926, S -0.292, F -0.717, R -0.309, G -0.743, A -0.116, T -0.064, I -0.642, Q -0.203, D -0.062, M -0.473, E -0.018, V -0.202, N -0.471, C -0.363
L60: Y -0.862, G -0.176, A -0.387, P -0.368, M -0.062
E41: Q -0.267, M -0.211, A -0.32, S -0.806, N -0.608, W -0.773, I -0.073, V -0.148, F -0.6
E17: T -0.101, C 0.07
G58: H -0.23, Q -0.013, E 0.082, T -0.079
V54: G -0.708, N -0.674, I -0.947, K -0.671, E -0.81
E55: N -0.939, K -0.253
G52: L -0.29, M 0.046, Y -0.064, W -0.053, T -0.083, R 0.117, H 0.404, A 0.111, E -0.189, I 0.04
E34: M -0.398, R 0.025, Q -0.364, A -0.42, G -0.379, S -0.129, L -0.611, I -0.055
I29: F -0.924, Q -0.082, A -0.665, P -0.595, N -0.461, Y -0.997
V26: H -0.279, R -0.353, M -0.154, F -0.464, Y -0.416, G -0.687, C -0.45, P -0.64, Q -0.532, E -0.27, W -0.554, N -0.594, L 0.043, S -0.704, T -0.319, K -0.311
L56: V -0.152, I -0.42, R -0.399
T28: W -0.809, E 0.016, C -0.941, S 0.011
L57: A -0.57, E -0.695, R -0.43, K -0.585, T -0.437, H -0.629, Y -0.578, M -0.251, D -0.429, W -1.03, N -0.375, I -0.176, P -0.655, V -0.24, Q -0.258
R22: I -0.191, C 0.081, L -0.282, Y -0.352, Q -0.027, W -0.542
G31: P -0.121, T -0.717, Y -0.975, W -0.955, K -0.085
G36: K -0.347, L -0.831, E -0.958, Q -0.797, M -0.584, R -0.709, D -0.824
I27: K -0.73, G -0.627, E -0.773, S -0.753, D -0.694
L15: Q 0.137, F 0.037, E 0.034, S 0.283, G 0.08, T 0.273
Q14: V -0.175, R 0.142, Y -0.537, K -0.092
E39: S -0.339, R -0.141
I48: G -1.01, V -0.007, P -0.651, A -0.777, R 0.012
P50: G -0.621, K -0.212, F -0.669, M -0.38, I -0.691, H -0.333, R -0.068, S -0.674, Y -0.794, N -0.371, A -0.736, C -0.93, Q -0.314, D -0.797, V -1.02, E -0.509, L -0.655
G44: Q -0.683, V -0.884, H -0.665
R45: W -0.958, G -0.961
P59: M -0.386, K -0.889, T -0.685
G24: W -0.891, A -0.551, T -0.818, I -0.897, V -0.701, Y -0.729, Q -0.733, F -0.82, H -0.679, N -0.253, E -0.593, P -0.749, R -0.778
G47: I -1.06, Q -0.861, V -0.719, L -0.696, K -0.839, D -0.804, E -0.962
G40: Y -0.604, P -0.502, K -0.906, F -0.901, L -0.762, E -0.685, Q -0.974
D16: N -0.315, F -0.763
W37: M -0.019, S -0.62, G -0.652, H -0.326
F49: W -1.1, D -0.74, K -0.655
F53: Y 0.059, E -0.486
F21: N -0.832, V -0.711, T -0.465, E -0.481, I -0.435

Variants of: B2
Assay: as above
Conditions: Homo sapiens

Abundance fitness of substitutions, site by site:
K1: Q -0.316, I -0.241, G -0.122, C -0.232, F -0.351, Y -0.172, N 0.265, M -0.184, D 0.195, S -0.249, T 0.113, V -0.367, R -0.181
R3: V -0.316, Y -0.58, K -0.33, A -0.664, D -0.283, H -0.122, S -0.364, T -0.109, I -0.409, G -0.21, L -0.178, M -0.228, N -0.388, E -0.401, C -0.38, F -0.451, P -0.572, W -0.372, Q -0.963
K2: T -0.423, A -0.197, P -0.293, Y -0.183, E 0.145, R -0.334, S -0.754, G -0.007, N -0.227, F -0.51, M 0.011
Q4: E -0.539
